Laboratory results from US20200392227A1 (LYVGEN BIOPHARMA, published 2020).
Read-outs that look alike come from different tables or passages of the source.

Assays:
Assay in all cases: BLI
[1] = molecular target: T1, human FcRIIA protein (MednaBio, E1033) (human, UniProt P12318 34-218, limits assumed)
T1 construct: Bought; also called FcγRIIA
T1 sequence (looked up): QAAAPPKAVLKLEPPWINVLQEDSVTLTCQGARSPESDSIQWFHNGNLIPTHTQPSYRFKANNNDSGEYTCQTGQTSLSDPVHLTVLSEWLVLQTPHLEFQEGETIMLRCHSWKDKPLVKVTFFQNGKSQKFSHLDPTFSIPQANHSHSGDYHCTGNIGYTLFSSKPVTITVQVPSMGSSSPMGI
Summary of the method: (§1)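 Binding was measured by biolayer interferometry on an Octet Red96 System, with commercial human Fc receptor proteins loaded at 20 μg/mL onto anti-penta-HIS biosensors. Sensors were dipped into an 8-point 1:3 dilution series of test IgG starting at 300 nM in PBS with 0.1% BSA and 0.02% Tween-20. Fcγ receptor assays ran at pH 7.2 and FcRn assays at pH 6. Kd, kon and koff came from global fitting to a 1:1 binding model.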

[2] = molecular target: T2, human FcRIIB/C protein (MednaBio, E1034) (human, UniProt P31994 43-217, limits assumed)
T2 construct: Bought as FcRIIB/C; also called FcγRIIB; CD32B
T2 sequence (looked up): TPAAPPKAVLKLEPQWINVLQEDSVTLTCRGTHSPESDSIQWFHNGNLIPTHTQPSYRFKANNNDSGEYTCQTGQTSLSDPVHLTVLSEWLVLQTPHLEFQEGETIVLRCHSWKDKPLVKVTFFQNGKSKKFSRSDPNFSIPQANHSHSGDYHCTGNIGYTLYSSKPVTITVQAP
Summary of the method: as §1

[3] = molecular target: T3, human FcRn protein (MednaBio, E1032) (human, UniProt P55899 24-297; P61769 21-119)
T3 construct: Bought; assays at pH 6
T3 sequence (P55899 24-297 limits assumed, form in doubt, chain 1 of 2): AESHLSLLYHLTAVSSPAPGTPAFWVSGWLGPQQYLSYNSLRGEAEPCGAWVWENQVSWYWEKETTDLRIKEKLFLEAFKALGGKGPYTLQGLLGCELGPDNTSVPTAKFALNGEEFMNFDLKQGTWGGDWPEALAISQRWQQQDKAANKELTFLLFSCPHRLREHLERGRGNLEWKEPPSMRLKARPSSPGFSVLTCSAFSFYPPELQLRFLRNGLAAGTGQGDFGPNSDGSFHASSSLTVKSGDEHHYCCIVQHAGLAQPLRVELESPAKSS
T3 sequence (P61769 21-119 limits assumed, form in doubt, chain 2 of 2): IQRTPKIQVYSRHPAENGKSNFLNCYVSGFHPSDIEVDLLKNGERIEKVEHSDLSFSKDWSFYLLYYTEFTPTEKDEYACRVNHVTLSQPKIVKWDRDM
Summary of the method: as §1

[4] = molecular target: T4, human FcRIIIA-V158 protein (MednaBio, E1035) (human, UniProt P08637 17-208)
T4 construct: Bought; also called FcγRIIIA(V); FcgRIIIA(V)
T4 sequence (P08637 17-208 F176V): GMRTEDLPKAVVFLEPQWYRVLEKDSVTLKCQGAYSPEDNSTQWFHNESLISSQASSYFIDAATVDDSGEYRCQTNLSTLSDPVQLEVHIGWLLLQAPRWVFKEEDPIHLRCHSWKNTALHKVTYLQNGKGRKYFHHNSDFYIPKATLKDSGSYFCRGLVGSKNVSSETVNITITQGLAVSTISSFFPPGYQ
Summary of the method: as §1

[5] = molecular target: T5, human FcRIIIA-F158 protein (MednaBio, E1036) (human, UniProt P08637 17-208)
T5 construct: Bought; also called FcγRIIIA(F)
T5 sequence (P08637 17-208 limits assumed): as the sequence (P08637 17-208 F176V) above, with V160F counted along it
Summary of the method: as §1

[6] = molecular target: T6, human FcRIIIB protein (MednaBio, E1037) (human, UniProt O75015 17-200)
T6 construct: Bought; also called FcγRIIIB; FcgRIIIB
T6 sequence (O75015 17-200 limits assumed): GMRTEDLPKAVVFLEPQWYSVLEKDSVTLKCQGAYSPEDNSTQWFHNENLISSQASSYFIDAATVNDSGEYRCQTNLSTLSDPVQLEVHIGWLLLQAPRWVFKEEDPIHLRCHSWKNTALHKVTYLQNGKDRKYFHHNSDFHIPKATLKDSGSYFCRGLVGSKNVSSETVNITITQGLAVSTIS
Summary of the method: as §1

[7] = molecular target: T7, human FcRI protein (MednaBio, E1031) (human, UniProt P12314 16-288, limits assumed)
T7 construct: Bought; loaded on anti-penta-HIS biosensors; also called FcγRI
T7 sequence (P12314 16-288 limits assumed): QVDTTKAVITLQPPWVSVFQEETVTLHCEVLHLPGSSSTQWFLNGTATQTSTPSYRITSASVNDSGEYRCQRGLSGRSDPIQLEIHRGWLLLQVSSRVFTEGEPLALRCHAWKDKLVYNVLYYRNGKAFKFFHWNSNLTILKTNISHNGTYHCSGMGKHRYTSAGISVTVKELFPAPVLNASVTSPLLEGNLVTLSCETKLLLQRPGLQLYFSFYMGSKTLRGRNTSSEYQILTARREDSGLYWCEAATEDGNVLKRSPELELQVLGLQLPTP
Summary of the method: as §1

[8] = molecular target: T1, human FcRIIA protein (MednaBio, E1033); remark: listed apart in the source
[9] = molecular target: T3, human FcRn protein (MednaBio, E1032); remark: listed apart in the source
[10] = molecular target: T4, human FcRIIIA-V158 protein (MednaBio, …); remark: listed apart in the source
[11] = molecular target: T7, human FcRI protein (MednaBio, E1031); remark: listed apart in the source
[12] = molecular target: T1, human FcRIIA protein (MednaBio, E1033); remark: listed apart in the source
Summary of the method: as §1

[13] = molecular target: T2, human FcRIIB/C protein (MednaBio, E1034); remark: listed apart in the source
Summary of the method: as §1

[14] = molecular target: T3, human FcRn protein (MednaBio, E1032); remark: listed apart in the source
Summary of the method: as §1

[15] = molecular target: T4, human FcRIIIA-V158 protein (MednaBio, …); remark: listed apart in the source
Summary of the method: as §1

[16] = molecular target: T7, human FcRI protein (MednaBio, E1031); remark: listed apart in the source
Summary of the method: as §1

B1: wild-type human IgG1 control (antibody)
heavy: not shown
light: SYELTQPPSVSVSPGQTASITCSGDNIGDQYAHWYQQKPGQSPVLVIYQDKNRPSGIPERFSGSNSGNTATLTISGTQAMDEADYYCATYTGFGSLAVFGGGTKLTVLGQPKAAPSVTLFPPSSEELQANKATLVCLISDFYPGAVTVAWKADSSPVKAGVETTTPSKQSNNKYAASSYLSLTPEQWKSHRSYSCQVTHEGSTVEKTVAPTECS
notes: Control IgG
[1]
  Kd: 56 nM
  koff: 0.032 s⁻¹
  kon: 570000 M⁻¹ s⁻¹
[2]
  Kd: 130 nM
  koff: 0.016 s⁻¹
  kon: 120000 M⁻¹ s⁻¹
[3]
  Kd: 16 nM
  koff: 0.008 s⁻¹
  kon: 480000 M⁻¹ s⁻¹
[4]
  Kd: 60 nM
  koff: 0.027 s⁻¹
  kon: 450000 M⁻¹ s⁻¹
[5]
  Kd: 120 nM
  koff: 0.02 s⁻¹
  kon: 170000 M⁻¹ s⁻¹
[6]
  Kd: 130 nM
  koff: 0.027 s⁻¹
  kon: 210000 M⁻¹ s⁻¹
[7]
  Kd: 5.6 nM
  koff: 0.0012 s⁻¹
  kon: 220000 M⁻¹ s⁻¹
[8]
  Kd: 56 nM
  koff: 0.032 s⁻¹
  kon: 570000 M⁻¹ s⁻¹
[9]
  Kd: 16 nM
  koff: 0.008 s⁻¹
  kon: 480000 M⁻¹ s⁻¹
[10]
  Kd: 60 nM
  koff: 0.027 s⁻¹
  kon: 450000 M⁻¹ s⁻¹
[11]
  Kd: 5.6 nM
  koff: 0.0012 s⁻¹
  kon: 220000 M⁻¹ s⁻¹
[12]
  Kd: 56 nM
  koff: 0.032 s⁻¹
  kon: 570000 M⁻¹ s⁻¹
[13]
  Kd: 130 nM
  koff: 0.016 s⁻¹
  kon: 120000 M⁻¹ s⁻¹
[14]
  Kd: 16 nM
  koff: 0.008 s⁻¹
  kon: 480000 M⁻¹ s⁻¹
[15]
  Kd: 60 nM
  koff: 0.027 s⁻¹
  kon: 450000 M⁻¹ s⁻¹
[16]
  Kd: 5.6 nM
  koff: 0.0012 s⁻¹
  kon: 220000 M⁻¹ s⁻¹

B2: wild-type human IgG4 control (antibody)
heavy: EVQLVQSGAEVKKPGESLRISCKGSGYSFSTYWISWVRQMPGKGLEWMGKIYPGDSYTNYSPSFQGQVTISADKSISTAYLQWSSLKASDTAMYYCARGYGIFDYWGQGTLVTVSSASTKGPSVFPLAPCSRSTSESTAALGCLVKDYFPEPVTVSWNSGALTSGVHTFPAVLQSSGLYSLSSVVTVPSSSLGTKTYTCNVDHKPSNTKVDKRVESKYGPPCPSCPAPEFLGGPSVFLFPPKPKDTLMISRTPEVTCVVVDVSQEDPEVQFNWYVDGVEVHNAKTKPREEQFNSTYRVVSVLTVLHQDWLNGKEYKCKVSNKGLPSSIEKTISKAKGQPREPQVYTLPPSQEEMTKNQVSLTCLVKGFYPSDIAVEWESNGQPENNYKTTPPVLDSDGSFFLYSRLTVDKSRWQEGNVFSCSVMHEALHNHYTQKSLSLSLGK
light: B1 light
notes: Control IgG
[8]
  Kd: 400 nM
  koff: 0.055 s⁻¹
  kon: 140000 M⁻¹ s⁻¹
[9]
  Kd: 18 nM
  koff: 0.012 s⁻¹
  kon: 640000 M⁻¹ s⁻¹
[10]
  Kd: 550 nM
  koff: 0.092 s⁻¹
  kon: 170000 M⁻¹ s⁻¹
[11]
  Kd: 4.8 nM
  koff: 0.0017 s⁻¹
  kon: 360000 M⁻¹ s⁻¹
[12]
  Kd: 400 nM
  koff: 0.055 s⁻¹
  kon: 140000 M⁻¹ s⁻¹
[13]
  Kd: 400 nM
  koff: 0.05 s⁻¹
  kon: 140000 M⁻¹ s⁻¹
[14]
  Kd: 18 nM
  koff: 0.012 s⁻¹
  kon: 640000 M⁻¹ s⁻¹
[15]
  Kd: 550 nM
  koff: 0.092 s⁻¹
  kon: 170000 M⁻¹ s⁻¹
[16]
  Kd: 4.8 nM
  koff: 0.0017 s⁻¹
  kon: 360000 M⁻¹ s⁻¹
